# Assay results taken from patent US20050118646A1.
# Key:
# [1] = molecular target: Neutravidin (UltraLink neutravidin beads, Pierce; neutravidin protein) (UniProt P02701); assay: Western blot (streptavidin-HRP) of sample and supernatant after binding to Neutravidin beads
# [2] = molecular target: Neutravidin (UltraLink neutravidin beads, Pierce; neutravidin protein) (UniProt P02701); assay: ELIFA; binding of the biotinylated protein to Ultralink Neutravidin beads (through biotin)
# Sequence of UniProt P02701 (P02701 25-152): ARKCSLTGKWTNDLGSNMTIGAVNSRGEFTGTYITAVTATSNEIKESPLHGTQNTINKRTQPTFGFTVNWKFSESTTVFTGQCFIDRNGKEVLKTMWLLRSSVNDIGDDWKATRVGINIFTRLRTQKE
percent bound to the beads [1],Binding [%] [2],Substance
> 80%,100%,"E24-tagged CDKN1b (AviTag-TEV cleavage site-His6-PrC-CDKN1b), biotinylated (from UniProt P46527 1-198)"
> 80%,100%,"E24-tagged Grb2 (AviTag-TEV cleavage site-His6-PrC-Grb2), biotinylated (from UniProt P62993 1-217)"
> 80%,100%,"E24-tagged NAPA (AviTag-TEV cleavage site-His6-PrC-NAPA), biotinylated (from UniProt P54920 1-295)"
> 80%,100%,"E25-tagged CDKN1b (AviTag-(G4S)2-TEV cleavage site-His6-PrC-CDKN1b), biotinylated (from UniProt P46527 1-198)"
> 80%,100%,"E25-tagged Grb2 (AviTag-(G4S)2-TEV cleavage site-His6-PrC-Grb2), biotinylated (from UniProt P62993 1-217)"
> 80%,100%,"E25-tagged NAPA (AviTag-(G4S)2-TEV cleavage site-His6-PrC-NAPA), biotinylated (from UniProt P54920 1-295)"
